The values that follow come from patent publication US20100317837A1.

Test [1] addresses Env BR025.9 on 293 cells (HIV-1 isolate BR025.9, clade C). Kind of test: cell-based or functional assay.
The target of test [2] is Env TH022.4 on 293 cells (HIV-1 isolate TH022.4, clade EA). Kind of test: cell-based or functional assay.
The target in test [3] is Env RW020.5 on 293 cells (HIV-1 isolate RW020.5, clade A). Kind of test: cell-based or functional assay.
In test [4] the target is Env US005.11 on 293 cells (HIV-1 isolate US005.11, clade B). Kind of test: cell-based or functional assay.
The target of test [5] is Env US715.6 on 293 cells (HIV-1 isolate US715.6, clade B). Kind of test: cell-based or functional assay.
In test [6] the target is Env BR029.2 on 293 cells (HIV-1 isolate BR029.2, clade F). Kind of test: cell-based or functional assay.
The target in test [7] is Env 89.6 on 293 cells (HIV-1 isolate 89.6, clade B). Kind of test: cell-based or functional assay.
The target of test [8] is Env UG037.8 on 293 cells (HIV-1 isolate UG037.8, clade A). Kind of test: cell-based or functional assay.
For test [9], the target named is Env HT593.1 on 293 cells (HIV-1 isolate HT593.1, clade B). Kind of test: cell-based or functional assay.
For test [10], the target named is Env UG975.10 on 293 cells (HIV-1 isolate UG975.10, clade G). Kind of test: cell-based or functional assay.
Test [11] deals with Env NL4-3 on 293 cells (HIV-1 NL4-3, clade B). Kind of test: cell-based or functional assay.
Test [12] deals with gp120 JR-FL (HIV-1 isolate JR-FL). Kind of test: ELISA, antigen coated on plate, soluble Fab titrated, Langmuir fit.
For test [13], the target named is gp120 89.6 (HIV-1 isolate 89.6). Described as above.
For test [14], the target named is sCD4-gp120 89.6 complex (HIV-1 isolate 89.6) (UniProt P01730). Described as above.
The target in test [15] is Env clone Z2Z6 on pseudotype virus (HIV-1 isolate Z2Z6, Clade D). Kind of test: cell-based or functional assay.
The target of test [16] is Env clone GX-E14 on pseudotype virus (HIV-1 isolate GX-E14, Clade E). Kind of test: cell-based or functional assay.
Test [17] has as its target Env clone TH966 on pseudotype virus (HIV-1 isolate TH966). Kind of test: cell-based or functional assay.
The target in test [18] is Env clone R2 on pseudotype virus (HIV-1 isolate R2, Clade B). Kind of test: cell-based or functional assay.
For test [19], the target named is Env clone VI1399 on pseudotype virus (HIV-1 isolate VI1399). Kind of test: cell-based or functional assay.
The target of test [20] is Env clone MN-TCLA on pseudotype virus (HIV-1 isolate MN-TCLA) (UniProt P05877). Kind of test: cell-based or functional assay.
Test [21] deals with Env clone GX-C44 on pseudotype virus (HIV-1 isolate GX-C44, Clade C). Kind of test: cell-based or functional assay.
The target of test [22] is Env clone VI1273 on pseudotype virus (HIV-1 isolate VI1273). Kind of test: cell-based or functional assay.
The target in test [23] is gp120 IIIB (HIV-1 isolate IIIB) (UniProt P04578). Kind of test: ELISA, antigen coated on plate, soluble Fab titrated, Langmuir fit.
Test [24] has the same target. Kind of test: ELISA, soluble Fab titrated on Env (direct or D7324 capture format not specified); IIIB* is gp120.
Test [25] has as its target gp140 89.6 (HIV-1 isolate 89.6). Kind of test: ELISA, soluble Fab titrated on Env (direct or D7324 capture format not specified).
Test [26] has as its target Env clone 92RW020.5 on pseudotype virus (HIV-1 isolate 92RW020.5, Clade A). Kind of test: cell-based or functional assay.
Test [27] concerns the target Env clone V5 on pseudotype virus (HIV-1 isolate V5). Kind of test: cell-based or functional assay.
Test [28] deals with Env clone P37 on pseudotype virus (HIV-1 isolate P37). Kind of test: cell-based or functional assay.
In test [29] the target is Env clone VI14004 on pseudotype virus (HIV-1 isolate VI14004, Clade F). Kind of test: cell-based or functional assay.

Chain of UniProt P05877 (P05877 32-856 limits assumed): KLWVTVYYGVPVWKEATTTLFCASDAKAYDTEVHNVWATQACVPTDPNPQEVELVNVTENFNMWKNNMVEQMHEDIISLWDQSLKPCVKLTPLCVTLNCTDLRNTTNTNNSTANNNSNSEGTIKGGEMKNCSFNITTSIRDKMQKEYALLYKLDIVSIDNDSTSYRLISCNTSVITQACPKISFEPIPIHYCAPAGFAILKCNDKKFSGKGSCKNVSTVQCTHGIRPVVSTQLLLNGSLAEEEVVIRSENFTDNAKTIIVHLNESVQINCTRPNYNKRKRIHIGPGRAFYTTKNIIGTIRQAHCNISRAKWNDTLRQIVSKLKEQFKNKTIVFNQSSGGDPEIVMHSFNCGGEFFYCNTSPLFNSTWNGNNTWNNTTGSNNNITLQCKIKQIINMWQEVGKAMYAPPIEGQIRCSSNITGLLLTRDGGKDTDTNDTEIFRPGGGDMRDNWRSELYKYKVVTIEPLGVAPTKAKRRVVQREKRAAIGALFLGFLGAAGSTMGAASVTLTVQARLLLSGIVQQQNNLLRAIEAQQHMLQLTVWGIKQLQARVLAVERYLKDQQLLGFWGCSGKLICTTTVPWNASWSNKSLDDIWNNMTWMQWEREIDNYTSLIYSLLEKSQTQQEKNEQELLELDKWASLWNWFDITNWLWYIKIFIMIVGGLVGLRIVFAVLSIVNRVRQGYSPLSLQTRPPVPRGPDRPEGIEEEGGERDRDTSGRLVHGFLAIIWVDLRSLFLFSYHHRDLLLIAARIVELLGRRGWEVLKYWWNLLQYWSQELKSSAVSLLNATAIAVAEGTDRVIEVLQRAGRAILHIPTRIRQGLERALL

For Fab X5, the % of fusion inhibition, cell-cell fusion assay, Fab at 50 µg/ml in test [1] was found to be 71%; in [2], 43%; in [3], 45%; in test [4], 72%; in test [5], 28%; in test [6], 36%. For the same substance, the % of fusion inhibition, cell-cell fusion assay, Fab at 50 µg/ml in test [7] is 93%; in test [8], 34%; in test [9], 27%; in [10], 19%; in [11], 83%.

For Fab m14, the Kd was 0.9 nM in test [12], 5.4 nM in test [13] and 7.3 nM in test [14]. For the same substance, the % of fusion inhibition, cell-cell fusion assay, Fab at 50 µg/ml in [1] came out at 71%; in [2], 100%; in [3] it was 31%; in test [4] it was 95%; in test [5], 35%; in [6], 71%. For the same substance, the % of fusion inhibition, cell-cell fusion assay, Fab at 50 µg/ml in test [7] was 100%; in test [8] it was 100%; in [9] it was 78%; in test [10], 22%; in [11], 96%. Further, the Concentration of Fab at the 50% neutralization endpoint, pseudovirus assay in test [15] is 50 µg/mL; in test [16], 100 µg/mL; in [17], above 100 µg/mL; in [18], 2.24 µg/mL; in [19], above 100 µg/mL; in test [20], 2.24 µg/mL. Besides, the Concentration of Fab at the 50% neutralization endpoint, pseudovirus assay in [21] came to 8.8 µg/mL; in test [22] it was 3.1 µg/mL.

Consider Fab m18, for which the Kd in [12] stood at 0.9 nM; in [13], 1 nM; in test [23], 0.08 nM; in [14], 0.9 nM. In addition, the EC50 in [24] is 0.48 nM; in test [25] it was 1.17 nM. The Concentration of Fab at the 50% neutralization endpoint, pseudovirus assay is 3 µg/mL in test [26]; 25 µg/mL in test [15]; below 2 µg/mL in test [27]; above 100 µg/mL in test [16]; 100 µg/mL in test [28]; above 100 µg/mL in [17]. The Concentration of Fab at the 50% neutralization endpoint, pseudovirus assay in [18] is 1.6 µg/mL; in [19], above 100 µg/mL; in test [20], below 1.6 µg/mL; in [29] it was below 2 µg/mL; in test [21] it was above 25 µg/mL; in test [22], 25 µg/mL. Also, the % of fusion inhibition, cell-cell fusion assay, Fab at 50 µg/ml in test [1] amounted to 86%; in [2] it was 93%; in [3] it was 25%; in test [4], 93%; in [5] it was 97%; in test [6] it was 86%. Also, the % of fusion inhibition, cell-cell fusion assay, Fab at 50 µg/ml worked out at 100% in test [7]; 34% in test [8]; 39% in test [9]; 56% in [10]; 92% in [11].
